According to publication PMC3050594 (Nature structural & molecular biology, 2010):

Target: RSV F0 Fd glycoprotein (Human respiratory syncytial virus; …, UniProt P03420, stabilised, glycosylated)
Assay: SEC

B1: palivizumab Fab (Fab, V domains shown)
VH: QVTLRESGPALVKPTQTLTLTCTFSGFSLSTSGMSVGWIRQPPGKALEWLADIWWDDKKDYNPSLKSRLTISKDTSKNQVVLKVTNMDPADTATYYCARSMITNWYFDVWGAGTTVTVSS
VL: DIQMTQSPSTLSASVGDRVTITCKCQLSVGYMHWYQQKPGKAPKLLIYDTSKLASGVPSRFSGSGSGTEFTLTISSLQPDDFATYYCFQGSGYPFTFGGGTKLEIK
stoichiometry N: 2.97 Fabs per trimer
